# In FireProtDB (doi:10.1016/j.jmb.2004.06.079):
# B1: Malate dehydrogenase, P80040 (parent)
# chain: MRKKISIIGAGFVGSTTAHWLAAKELGDIVLLDFVEGVPQGKALDLYEASPIEGFDVRVTGTNNYADTANSDVIVVTSGAPRKPGMSREDLIKVNADITRACISQAAPLSPNAVIIMVNNPLDAMTYLAAEVSGFPKERVIGQAGVLDAARYRTFIAMEAGVSVEDVQAMLMGGHGDEMVPLPRFSTISGIPVSEFIAPDRLAQIVERTRKGGGEIVNLLKTGSAYYAPAAATAQMVEAVLKDKKRVMPVAAYLTGQYGLNDIYFGVPVILGAGGVEKILELPLNEEEMALLNASAKAVRATLDTLKSL
# Variants of: B1
# Conditions: Chloroflexus aurantiacus (strain ATCC 29366 / DSM 635 / J-10-fl), Thermal, CD, structure 1GUY, whole UniProt chain shown
# [1] = pH 7.5, potassium phosphate 10 mM
# [2] = pH 6, potassium phosphate 10 mM
Variant,"Tm (pH 4.4, sodium acetate 10 mM) [°C]","change of melting temperature, mutant - wild type (higher = more stable) (pH 4.4, sodium acetate 10 mM) [°C]",Tm [1] [°C],"change of melting temperature, mutant - wild type (higher = more stable) [1] [°C]",Tm [2] [°C],"change of melting temperature, mutant - wild type (higher = more stable) [2] [°C]"
E165Q,85.8,5.4,91.4,23.6,,
E165K,85,4.6,91.7,23.9,91.4,12
